In paper PMC9425024:
Values joined by “and” are separate entries in the source; they are usually repeats but may differ in a detail not shown here. Equal values may be shown once.

Assays:
[1] = target: CTD At ProXp-ala (Arabidopsis thaliana); test: SEC-MALS; Superdex 200 Increase 10/300 GL in 50 mM Hepes pH 6.8, 30 mM KCl, 2 mM DTT, 1 mM MgCl2; 100 μl of 3 mg/ml WT, 6 mg/ml ΔCTD or 1.5 mg/ml CTD injected; self-association
[2] = target: wildtype Arabidopsis thaliana (At) ProXp-ala (Arabidopsis thaliana); test: as above

Substance	stoichiometry N [1]	stoichiometry N [2]
CTD At ProXp-ala (domain or fragment)	2 and 4	
wildtype Arabidopsis thaliana (At) ProXp-ala (enzyme)		2
